This is an account of results in patent US20250257133A1 (ADAGENE PTE, published 2025).

Test [1] deals with T1, Human CD28 on cells (human, UniProt P10747 19-220).
T1 construct: Jurkat E6-1 cells, primary human T cells, or transfected HEK293F cells; also called CD28 on Jurkat cells; CD28 on human CD3+ T cells
The test can be described thus: flow cytometry, Jurkat cells. For orientation: In flow cytometry, cells or beads pass a laser one at a time.
Method: Next, the cells were washed twice with DPBS and further incubated with a APC-anti-human IgG Fc secondary antibody (1 μg/mL, 100 μL/well, Biolegend) for 30 minutes at 4° C. Finally, the cells were washed twice with DPBS and suspended in FACS buffer for flow cytometry analysis. For analysis, the Mean Fluorescence Intensity (MFI) values versus concentrations were plotted using FlowJo 10 software (FlowJo LLC) and the data were further fitted with four-parameter non-linear regression to obtain EC₅₀ values by GraphPad Prism version 7 for Windows, GraphPad Software, La Jolla California USA, www.graphpad.com.

Test [2] concerns the target T2, His-tagged human CTLA4 protein (human, UniProt P16410 36-161, limits assumed).
T2 construct: not shown: His tag
Nature of the test: Octet BLI, mAb captured.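 Note: Anti-human Fc biosensors captured the antibodies, then His-tagged protein analytes at 100 nM associated for 300 s and dissociated for 300 s, fitted by a 1:1 Langmuir model.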

Test [3] concerns the target T3, His-tagged human CD28 protein (human, UniProt P10747 19-152).
T3 construct: not shown: His tag
Nature of the test: Octet BLI, mAb captured.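 Note: Anti-human Fc biosensors captured the antibodies, then His-tagged protein analytes at 100 nM associated for 300 s and dissociated for 300 s, fitted by a 1:1 Langmuir model.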 In general terms: BLI is a label-free optical method that tracks binding on a fibre tip over time.

In test [4] the target is Human CD28 (ELISAs of Examples 4 and 13) (human, UniProt P10747 19-152, limits assumed). The test can be described thus: ELISA, blocking of CD28-CD80. For orientation: ELISA stands for enzyme-linked immunosorbent assay.
Test [5] concerns the target T4, Recombinant human CD28-Fc (human, UniProt P10747 19-152).
T4 construct: not shown: Fc part
The test can be described thus: ELISA, coated CD28-Fc.

Test [6] deals with T5, Recombinant mouse CD28-Fc (mouse, UniProt P31041 20-150).
T5 construct: not shown: Fc part
T5 sequence (P31041 20-150 limits assumed): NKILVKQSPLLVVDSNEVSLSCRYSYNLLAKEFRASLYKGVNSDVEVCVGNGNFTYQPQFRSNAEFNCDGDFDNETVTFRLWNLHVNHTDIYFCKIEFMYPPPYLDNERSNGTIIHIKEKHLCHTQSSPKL
Nature of the test: ELISA, coated CD28-Fc.

T2 sequence (P16410 36-161 limits assumed): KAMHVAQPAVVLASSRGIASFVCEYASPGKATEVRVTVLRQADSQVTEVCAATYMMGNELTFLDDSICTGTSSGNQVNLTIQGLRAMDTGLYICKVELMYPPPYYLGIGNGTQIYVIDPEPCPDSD

B1: TY24857 (antibody, human IgG4 S228P, kappa, V domains shown)
VH: EVQLVESGGGLVQPGGSLRLSCAASGFSLSTSGVAVGWIRQAPGKGLEWIGEIYHSGSTYYSPSLKSRVTISRDNSKNTLYLQLNSLRAEDTAVYYCARHGYHYYALDYWGQGTLVTVSS
VL: DIQLTQSPSSLSASVGDRVTITCPASQDVGTAVAWYQQKPGKAPKLLIYDASSLESGVPSRFSGSGSGTDFTLTISSLQPEDFATYYCQQYYSSPPTFGQGTKVEIKR
notes: hIgG4/S241P
For B1, a half-maximal response in test [1] (EC50) required 0.75 nM. For the same molecule, in test [2], the affinity, expressed as Kd, was 5.44 nM; the koff – broadly, the first-order rate constant of dissociation – was determined as 0.00355 s⁻¹; the kon (usually a measure of how fast the partners come together) amounted to 652000 M⁻¹ s⁻¹. In test [3], binding was characterised by a dissociation constant (Kd) of 8.64 nM, the koff turned out to be 0.00063 s⁻¹ and the kon is 72900 M⁻¹ s⁻¹.

B2: TY24860 (antibody, human IgG4 S228P, kappa, V domains shown)
VH: EVQLVESGGGLVQPGGSLRLSCAASGFSLSTSGVGVSWIRQAPGKGLEWIGEIYHSGSTYYSPSLKSRVTISRDNSKNTLYLQLNSLRAEDTAVYYCARKGYYYYAFDYWGPGTLVTVSS
VL: DIQLTQSPSSLSASVGDRVTITCRASQDIGSFLAWYQQKPGKAPKLLIYAASSLQSGVPSRFSGSGSGTDFTLTISSLQPEDFATYYCQQSYRSPPTFGQGTKVEIKR
notes: hIgG4/S241P
Take B2: the response in test [1] was half-maximal at 0.78 nM (EC50). Also, the binding result in test [2] is on record as “no binding (tested: 100 nM CTLA4)”. For the same molecule, in test [3], the Kd (commonly the free concentration of one partner at which half of the binding sites on the other are occupied at equilibrium, for simple one-to-one binding) worked out at 6.66 nM; the koff was 0.000421 s⁻¹; the kon was 63200 M⁻¹ s⁻¹.

B3: TY24877 (antibody, human IgG4 S228P, kappa, V domains shown)
VH: QVQLVQSGAEVKKPGSSVKVSCKASGYTFTNYGIHWVRQAPGQGLEWIGEIYHSGSTYYSPSLKSRVTITADKSTSTAYMELSSLRSEDTAVYYCARGPLSYYALDYWGQGTLVTVSS
VL: DIQLTQSPSSLSASVGDRVTITCRASQSIRRFLNWYQQKPGKAPKLLIYDASSLESGVPSRFSGSGSGTDFTLTISSLQPEDFATYYCQQYYRSPITFGQGTKVEIKR
notes: hIgG4/S241P
Consider B3, for which, in test [1], the EC50 – broadly, the midpoint of the concentration-response curve – came out at 0.79 nM. Also, in test [2], the affinity, expressed as Kd, was 13.2 nM; the koff came to 0.00311 s⁻¹; the kon worked out at 235000 M⁻¹ s⁻¹. Also, in test [3], the Kd amounted to 7.19 nM, the koff stood at 0.000193 s⁻¹ and the kon is 26900 M⁻¹ s⁻¹.

B4: TY24884 (antibody, human IgG4 S228P, kappa, V domains shown)
VH: QVQLVQSGAEVKKPGSSVKVSCKASGFTFSGYAIHWVRQAPGQGLEWIGQIYHSGSTYYNPSLKSRVTITADKSTSTAYMELSSLRSEDTAVYYCARSGYGGYDFDYWGQGTLVTVSS
VL: DIQLTQSPSSLSASVGDRVTITCRASQSVPRRYLAWYQQKPGKAPKLLIYAASTLQSGVPSRFSGSGSGTDFTLTISSLQPEDFATYYCQQYYRSPITFGQGTKVEIKR
notes: hIgG4/S241P
For B4, the IC50 (usually the midpoint of a concentration-inhibition curve) in test [4] came out at 0.28 nM. Further, the EC50 in test [1] is 1.09 nM; in test [5] it was 1.02 nM; in test [6] it was over 44.4 nM. The Kd in test [2] amounted to 6.36 nM; in test [3] it was 2.42 nM. The values for the koff in test [2] and in test [3] were 0.00408 s⁻¹ and 0.000166 s⁻¹, respectively. Also, the kon in test [2] was 641000 M⁻¹ s⁻¹; in test [3], 68400 M⁻¹ s⁻¹.

B5: TY24858 (antibody, human IgG4 S228P, kappa, V domains shown)
VH: EVQLVESGGGLVQPGGSLRLSCAASGYSISSGHHWTWIRQAPGKGLEWIGEIYHSGSTYYSPSLKSRVTISRDNSKNTLYLQLNSLRAEDTAVYYCARRDYGSSYFDYWGQGTLVTVSS
VL: DIQLTQSPSSLSASVGDRVTITCRASQSVSRSFLAWYQQKPGKAPKLLIYDASNRATGIPSRFSGSGSGTDFTLTISSLQPEDFATYYCQQYYRSPITFGQGTKVEIKR
notes: hIgG4/S241P
B5 came in with an EC50 in test [1] of 0.7 nM. In test [2], this molecule gave a Kd of 7.9 nM, a dissociation rate constant (koff) of 0.00242 s⁻¹ and a kon of 306000 M⁻¹ s⁻¹. Besides, in test [3], the Kd is 9.88 nM, the koff amounted to 0.000702 s⁻¹ and the kon amounted to 71000 M⁻¹ s⁻¹.
